According to publication PMC8154254, “On the Track of Long-Range Electron Transfer in B-Type Dye-Decolorizing Peroxidases: Identification of a Tyrosyl Radical by Computational Prediction and Electron Paramagnetic Resonance Spectroscopy” (Biochemistry, 2021):

Substrate: CCn1c(=NN=c2sc3cc(S(=O)(=O)O)ccc3n2CC)sc2cc(S(=O)(=O)O)ccc21
Test: purified protein
Format: biochemical, Klebsiella pneumoniae
Details: 40 μM H2O2, 100 nM enzyme, 50 mM phosphate-citrate pH 5.0, room temperature

B1: KpDyP (B-type Klebsiella pneumoniae dye-decolorizing peroxidase) (Klebsiella pneumoniae) (protein)
chain: MSQVQSGILPEHCRAAIWIEANLKGDVNALREASKIFVDNVATFQAKFPDAKLGAVVAFGNNVWRQLSGGEGADELKDFPVYGKGLAPSTQYDLLIHILSARHEVNFSVAQAALAAFGDAIDVKEEIHGFRWVEERDLSGFVDGTENPAGEETRREVAVIKDGVDAGGSYVFVQRWEHNLKQLNRMSVPDQEMMIGRTKDANEEIDGDERPVTSHLSRVDLKEDGKGLKIVRQSLPYGTASGTHGLYFCAYCARLYNIEQQLLSMFGDTDGKRDAMLRFTKPVTGGYYFAPSLERIQAL
notes: recombinant from E. coli BL21 (DE3) Tuner; dimer
For B1, the Km was 20.5 ± 1.9 µM, the kcat was 3.1 ± 0.1 s⁻¹ and the kcat/Km was 150000 M⁻¹ s⁻¹.
